PMC9367764, “Functional Versatility of the Human 2-Oxoadipate Dehydrogenase in the L-Lysine Degradation Pathway toward Its Non-Cognate Substrate 2-Oxopimelic Acid” (International Journal of Molecular Sciences, 2022)
Blank lines part the entries; values can stand above or below the molecule they belong to.

Assays:
[1] = molecular target: E2o 1-173 di-domain, labelled with N-(1-pyrene) maleimide (human); experiment: other fluorescence titration; pyrene-labelled E2o 1-173 di-domain titrated by Arg715Cys E1a; 25 °C; 100 mM HEPES (pH 7.5), 0.15 M NaCl, 1% glycerol
[2] = molecular target: human dihydrolipoamide succinyltransferase (E2o) (human) (UniProt P36957); experiment: pull-down; co-purification of E1a or Arg715Cys E1a with E2o and E3 (assembly into OADHc) on immobilized metal affinity chromatography; relative amounts from band intensities in PAGE; which component was held by the resin is not stated
human dihydrolipoamide succinyltransferase (E2o) (human), sequence (P36957 68-453): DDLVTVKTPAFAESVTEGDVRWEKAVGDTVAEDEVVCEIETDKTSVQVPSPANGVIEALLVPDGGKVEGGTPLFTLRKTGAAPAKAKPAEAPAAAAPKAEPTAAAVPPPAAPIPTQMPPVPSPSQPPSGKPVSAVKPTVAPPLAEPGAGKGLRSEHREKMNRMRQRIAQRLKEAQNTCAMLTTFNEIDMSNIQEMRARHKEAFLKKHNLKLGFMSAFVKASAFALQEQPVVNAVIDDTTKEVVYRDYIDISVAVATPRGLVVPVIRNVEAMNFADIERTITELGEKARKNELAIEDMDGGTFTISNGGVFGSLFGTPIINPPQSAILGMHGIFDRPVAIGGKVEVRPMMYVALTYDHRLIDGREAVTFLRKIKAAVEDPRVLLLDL

[3] = molecular target: human dihydrolipoamide dehydrogenase (E3) (human) (UniProt P09622); experiment: as above
human dihydrolipoamide dehydrogenase (E3) (human), sequence (P09622 36-509): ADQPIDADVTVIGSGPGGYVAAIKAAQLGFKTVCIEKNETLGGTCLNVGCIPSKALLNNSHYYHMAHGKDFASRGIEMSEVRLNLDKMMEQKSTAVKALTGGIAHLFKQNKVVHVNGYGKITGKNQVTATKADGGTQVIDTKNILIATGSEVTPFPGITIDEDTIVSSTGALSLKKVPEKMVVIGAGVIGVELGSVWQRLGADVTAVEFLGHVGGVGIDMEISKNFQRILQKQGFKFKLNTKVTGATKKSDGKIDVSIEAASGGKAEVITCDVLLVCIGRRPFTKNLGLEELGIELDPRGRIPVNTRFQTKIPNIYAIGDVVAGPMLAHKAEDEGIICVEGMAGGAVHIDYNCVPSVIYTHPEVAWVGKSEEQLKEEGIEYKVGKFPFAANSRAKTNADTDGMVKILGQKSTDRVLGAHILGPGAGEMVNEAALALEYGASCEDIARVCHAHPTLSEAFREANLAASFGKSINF

[4] = molecular target: E2o di-domain (linker and part of core domain) (Homo sapiens) (UniProt P36957); experiment: fluorescence; details: cited from earlier work
E2o di-domain (linker and part of core domain) (Homo sapiens), sequence (P36957 68-219): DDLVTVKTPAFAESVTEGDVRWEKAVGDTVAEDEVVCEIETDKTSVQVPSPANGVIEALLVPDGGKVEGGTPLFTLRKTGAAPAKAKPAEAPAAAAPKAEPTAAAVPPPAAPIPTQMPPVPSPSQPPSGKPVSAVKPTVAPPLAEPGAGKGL

[5] = substrate: O=C(O)CCCC(=O)C(=O)O; experiment: E1a-specific DCPIP reduction assay (Km, kcat); type: biochemical, Homo sapiens; details: ThDP, Mg2+ active center; decarboxylated to the E1a-ThDP-enamine intermediate
[6] = substrate: O=C(O)CCCCC(=O)C(=O)O; experiment: E1a-specific DCPIP reduction assay (Km, kcat); type: biochemical, Homo sapiens; details: ThDP, Mg2+ active center; decarboxylated to the E1a-ThDP-enamine intermediate
[7] = substrate: O=C(O)CCCC(=O)C(=O)O; experiment: E1a-specific DCPIP reduction assay (Km); type: biochemical, Homo sapiens; details: ThDP, Mg2+

Kd [1]: 1130 nM | relative amount of E1a among the components co-purified as OADHc (band intensity in PAGE) [2]: 7.7% | relative amount of E1a among the components co-purified as OADHc (band intensity in PAGE) [3]: 7.7%
Molecule: Arg715Cys E1a variant of human 2-oxoadipate dehydrogenase (enzyme)

Molecule: E1a (2-oxoadipate dehydrogenase) (from UniProt Q96HY7)
Kd [4]: 1120 nM

relative amount of E1a among the components co-purified as OADHc (band intensity in PAGE) [2]: 46% | relative amount of E1a among the components co-purified as OADHc (band intensity in PAGE) [3]: 46%
Molecule: human 2-oxoadipate dehydrogenase (E1a), wild type (enzyme)

B1: 2-oxoadipate dehydrogenase (E1a) (Homo sapiens) (protein)
chain: GYQTERGVYGYRPRKPESREPQGALERPPVDHGLARLVTVYCEHGHKAAKINPLFTGQALLENVPEIQALVQTLQGPFHTAGLLNMGKEEASLEEVLVYLNQIYCGQISIETSQLQSQDEKDWFAKRFEELQKETFTTEERKHLSKLMLESQEFDHFLATKFSTVKRYGGEGAESMMGFFHELLKMSAYSGITDVIIGMPHRGRLNLLTGLLQFPPELMFRKMRGLSEFPENFSATGDVLSHLTSSVDLYFGAHHPLHVTMLPNPSHLEAVNPVAVGKTRGRQQSRQDGDYSPDNSAQPGDRVICLQVHGDASFCGQGIVPETFTLSNLPHFRIGGSVHLIVNNQLGYTTPAERGRSSLYCSDIGKLVGCAIIHVNGDSPEEVVRATRLAFEYQRQFRKDVIIDLLCYRQWGHNELDEPFYTNPIMYKIIRARKSIPDTYAEHLIAGGLMTQEEVSEIKSSYYAKLNDHLNNMAHYRPPALNLQAHWQGLAQPEAQITTWSTGVPLDLLRFVGMKSVEVPRELQMHSHLLKTHVQSRMEKMMDGIKLDWATAEALALGSLLAQGFNVRLSGQDVGRGTFSQRHAIVVCQETDDTYIPLNHMDPNQKGFLEVSNSPLSEEAVLGFEYGMSIESPKLLPLWEAQFGDFFNGAQIIFDTFISGGEAKWLLQSGIVILLPHGYDGAGPDHSSCRIERFLQMCDSAEEGVDGDTVNMFVVHPTTPAQYFHLLRRQMVRNFRKPLIVASPKMLLRLPAAVSTLQEMAPGTTFNPVIGDSSVDPKKVKTLVFCSGKHFYSLVKQRESLGAKKHDFAIIRVEELCPFPLDSLQQEMSKYKHVKDHIWSQEEPQNMGPWSFVSPRFEKQLACKLRLVGRPPLPVPAVGIGTVHLHQHEDILAKTFA
notes: C-terminally His6-tagged E1a
Km [5]: 4.9 µM | Km [6]: 37 µM

B2: 2-oxoadipate dehydrogenase (E1a) (Homo sapiens; R455Q) (protein)
chain: GYQTERGVYGYRPRKPESREPQGALERPPVDHGLARLVTVYCEHGHKAAKINPLFTGQALLENVPEIQALVQTLQGPFHTAGLLNMGKEEASLEEVLVYLNQIYCGQISIETSQLQSQDEKDWFAKRFEELQKETFTTEERKHLSKLMLESQEFDHFLATKFSTVKRYGGEGAESMMGFFHELLKMSAYSGITDVIIGMPHRGRLNLLTGLLQFPPELMFRKMRGLSEFPENFSATGDVLSHLTSSVDLYFGAHHPLHVTMLPNPSHLEAVNPVAVGKTRGRQQSRQDGDYSPDNSAQPGDRVICLQVHGDASFCGQGIVPETFTLSNLPHFRIGGSVHLIVNNQLGYTTPAERGRSSLYCSDIGKLVGCAIIHVNGDSPEEVVRATRLAFEYQRQFRKDVIIDLLCYRQWGHNELDEPFYTNPIMYKIIRAQKSIPDTYAEHLIAGGLMTQEEVSEIKSSYYAKLNDHLNNMAHYRPPALNLQAHWQGLAQPEAQITTWSTGVPLDLLRFVGMKSVEVPRELQMHSHLLKTHVQSRMEKMMDGIKLDWATAEALALGSLLAQGFNVRLSGQDVGRGTFSQRHAIVVCQETDDTYIPLNHMDPNQKGFLEVSNSPLSEEAVLGFEYGMSIESPKLLPLWEAQFGDFFNGAQIIFDTFISGGEAKWLLQSGIVILLPHGYDGAGPDHSSCRIERFLQMCDSAEEGVDGDTVNMFVVHPTTPAQYFHLLRRQMVRNFRKPLIVASPKMLLRLPAAVSTLQEMAPGTTFNPVIGDSSVDPKKVKTLVFCSGKHFYSLVKQRESLGAKKHDFAIIRVEELCPFPLDSLQQEMSKYKHVKDHIWSQEEPQNMGPWSFVSPRFEKQLACKLRLVGRPPLPVPAVGIGTVHLHQHEDILAKTFA
notes: C-terminally His6-tagged E1a variant
Km [7]: 3.5 µM

B3: 2-oxoadipate dehydrogenase (E1a) (Homo sapiens; P773L) (protein)
chain: GYQTERGVYGYRPRKPESREPQGALERPPVDHGLARLVTVYCEHGHKAAKINPLFTGQALLENVPEIQALVQTLQGPFHTAGLLNMGKEEASLEEVLVYLNQIYCGQISIETSQLQSQDEKDWFAKRFEELQKETFTTEERKHLSKLMLESQEFDHFLATKFSTVKRYGGEGAESMMGFFHELLKMSAYSGITDVIIGMPHRGRLNLLTGLLQFPPELMFRKMRGLSEFPENFSATGDVLSHLTSSVDLYFGAHHPLHVTMLPNPSHLEAVNPVAVGKTRGRQQSRQDGDYSPDNSAQPGDRVICLQVHGDASFCGQGIVPETFTLSNLPHFRIGGSVHLIVNNQLGYTTPAERGRSSLYCSDIGKLVGCAIIHVNGDSPEEVVRATRLAFEYQRQFRKDVIIDLLCYRQWGHNELDEPFYTNPIMYKIIRARKSIPDTYAEHLIAGGLMTQEEVSEIKSSYYAKLNDHLNNMAHYRPPALNLQAHWQGLAQPEAQITTWSTGVPLDLLRFVGMKSVEVPRELQMHSHLLKTHVQSRMEKMMDGIKLDWATAEALALGSLLAQGFNVRLSGQDVGRGTFSQRHAIVVCQETDDTYIPLNHMDPNQKGFLEVSNSPLSEEAVLGFEYGMSIESPKLLPLWEAQFGDFFNGAQIIFDTFISGGEAKWLLQSGIVILLPHGYDGAGPDHSSCRIERFLQMCDSAEEGVDGDTVNMFVVHPTTPAQYFHLLRRQMVRNFRKPLIVASPKMLLRLLAAVSTLQEMAPGTTFNPVIGDSSVDPKKVKTLVFCSGKHFYSLVKQRESLGAKKHDFAIIRVEELCPFPLDSLQQEMSKYKHVKDHIWSQEEPQNMGPWSFVSPRFEKQLACKLRLVGRPPLPVPAVGIGTVHLHQHEDILAKTFA
Km [7]: 6 µM

B4: 2-oxoadipate dehydrogenase (E1a) (Homo sapiens; Q305H) (protein)
chain: GYQTERGVYGYRPRKPESREPQGALERPPVDHGLARLVTVYCEHGHKAAKINPLFTGQALLENVPEIQALVQTLQGPFHTAGLLNMGKEEASLEEVLVYLNQIYCGQISIETSQLQSQDEKDWFAKRFEELQKETFTTEERKHLSKLMLESQEFDHFLATKFSTVKRYGGEGAESMMGFFHELLKMSAYSGITDVIIGMPHRGRLNLLTGLLQFPPELMFRKMRGLSEFPENFSATGDVLSHLTSSVDLYFGAHHPLHVTMLPNPSHLEAVNPVAVGKTRGRHQSRQDGDYSPDNSAQPGDRVICLQVHGDASFCGQGIVPETFTLSNLPHFRIGGSVHLIVNNQLGYTTPAERGRSSLYCSDIGKLVGCAIIHVNGDSPEEVVRATRLAFEYQRQFRKDVIIDLLCYRQWGHNELDEPFYTNPIMYKIIRARKSIPDTYAEHLIAGGLMTQEEVSEIKSSYYAKLNDHLNNMAHYRPPALNLQAHWQGLAQPEAQITTWSTGVPLDLLRFVGMKSVEVPRELQMHSHLLKTHVQSRMEKMMDGIKLDWATAEALALGSLLAQGFNVRLSGQDVGRGTFSQRHAIVVCQETDDTYIPLNHMDPNQKGFLEVSNSPLSEEAVLGFEYGMSIESPKLLPLWEAQFGDFFNGAQIIFDTFISGGEAKWLLQSGIVILLPHGYDGAGPDHSSCRIERFLQMCDSAEEGVDGDTVNMFVVHPTTPAQYFHLLRRQMVRNFRKPLIVASPKMLLRLPAAVSTLQEMAPGTTFNPVIGDSSVDPKKVKTLVFCSGKHFYSLVKQRESLGAKKHDFAIIRVEELCPFPLDSLQQEMSKYKHVKDHIWSQEEPQNMGPWSFVSPRFEKQLACKLRLVGRPPLPVPAVGIGTVHLHQHEDILAKTFA
notes: as for B2
Km [7]: 5 µM
